# Results taken from patent US20260167720A1 (Amgen, published 2026).
# Legend:
# Experiment in all cases: cell-based or functional assay
# [1] = target: T1, CDH3 (Cadherin-3, P-Cadherin) on HCT116 or GSU cells (UniProt P22223 108-829, limits assumed)
# [2] = target: T2, MSLN (Mesothelin) on HCT116 or GSU cells (UniProt Q13421 37-598, limits assumed)
# [3] = target: T1, CDH3 (Cadherin-3, P-Cadherin) on HCT116 …; remark: listed apart in the source
# [4] = target: T2, MSLN (Mesothelin) on HCT116 or GSU cells; remark: listed apart in the source
Binder,"EC50 HCT116 KO MSLN [pM]; TDCC, MSLN knocked out, CDH3 left [1]","EC50 HCT116 WT [pM]; TDCC, cells double positive for CDH3 and MSLN [1]","EC50 HCT116 KO CDH3 [pM]; TDCC, CDH3 knocked out, MSLN left [2]","EC50 HCT116 WT [pM]; TDCC, cells double positive for CDH3 and MSLN [2]","EC50 GSU KO MSLN [pM]; TDCC, MSLN knocked out, CDH3 left [3]","EC50 GSU WT [pM]; TDCC, cells double positive for CDH3 and MSLN [3]","EC50 GSU KO CDH3 [pM]; TDCC, CDH3 knocked out, MSLN left [4]","EC50 GSU WT [pM]; TDCC, cells double positive for CDH3 and MSLN [4]"
"MSLN-CDH3 T-cell engager molecule 6 (example to FIG. 2L) (bispecific antibody, human IgG1, kappa, lambda, N297G) chain 1: not shown chain 2: EVQLVESGGGLVQPGGSLKLSCAASGFTFNKYAMNWVRQAPGKGMEWVARIRSKYNNYATYYADAVKDRFTISRDDSKNTLYLQMNNLKTEDTAVYYCVRAGNFGSSYISYFAYWGQGTLVTVSSASTKGPSVFPLAPSSKSTSGGTAALGCLVKDYFPEPVTVSWNSGALTSGVHTFPAVLQSSGLYSLESVVTVPSSSLGTQTYICNVNHKPSNTKVDKKVEPKSCDKTHTCPPCPAPELLGGPSVFLFPPKPKDTLMISRTPEVTCVVVDVSHEDPEVKFNWYVDGVEVHNAKTKPCEEQYGSTYRCVSVLTVLHQDWLNGKEYKCKVSNKALPAPIEKTISKAKGQPREPQVYTLPPSRKEMTKNQVSLTCLVKGFYPSDIAVEWESNGQPENNYKTTPPVLKSDGSFFLYSKLTVDKSRWQQGNVFSCSVMHEALHNHYTQKSLSLSPGKGGGGQVQLQESGPGLVKPSETLSLTCTVSGGSISSSSYFWGWIRQPPGKCLEWIGNIYYSGSSNYNPSLKSRVTISVDTSKNQFSLKLSSVTAADTAVYYCARLPRGDRDAFDIWGQGTMVTVSSGGGGQGGGGQGGGGQEIVMTQSPSSLSASVGDRVTITCRASQGISNYLAWYQQKPGKVPKLLIYAASTLQSGVPSRFSGSGSGTDFTLTISSLQPEDFATYYCQQSYSTPFTFGCGTKVEIKSGGGGQEVQLVESGGGLVQPGGSLKLSCAASGFTFNKYAMNWVRQAPGKGMEWVARIRSKYNNYATYYADAVKDRFTISRDDSKNTLYLQMNNLKTEDTAVYYCVRAGNFGSSYISYFAYWGQGTLVTVSSGGGGQGGGGQGGGGQQTVVTQEPSLTVSPGGTVTITCGSSTGAVTSGNYPNWIQKKPGQAPRGLIGGTKFLAPGTPARFSGSLEGGKAALTLSGVQPEDEAEYYCVLYYSNRWVFGSGTKLTVL chain 3: EIQMTQSPSSLSASVGDRVTITCRASQDISNYLNWYQQKPGKVPKLLIYYTSRLHSGVPSRFSGSGSGTDFTLTISSLQPEDVATYYCVQYAQFPLTFGCGTKVEIKRTVAAPSVFIFPPSDEQLKSGTASVVCLLNNFYPREAKVQWKVDNALQSGNSQESVTEQDSKDSTYSLESTLTLSKADYEKHKVYACEVTHQGLSSPVTKSFNRGEC chain 4: QTVVTQEPSLTVSPGGTVTITCGSSTGAVTSGNYPNWIQKKPGQAPRGLIGGTKFLAPGTPARFSGSLEGGKAALTLSGVQPEDEAEYYCVLYYSNRWVFGSGTKLTVLGQPKAAPSVTLFPPSSEELQANKATLVCLISDFYPGAVTVAWKADSSPVKAGVETTTPSKQSNNKYAAKSYLSLTPEQWKSHRSYSCQVTHEGSTVEKTVAPTECS",0.27 pM,0.002 pM,0.58 pM,0.002 pM,11.6 pM,0.024 pM,0.89 pM,0.024 pM
"MSLN-CDH3 T-cell engager molecule 7 (example to FIG. 2K) (bispecific antibody, human IgG1, kappa, lambda, N297G) chain 1: not shown chain 2: EVQLVESGGGLVQPGGSLKLSCAASGFTFNKYAMNWVRQAPGKGMEWVARIRSKYNNYATYYADAVKDRFTISRDDSKNTLYLQMNNLKTEDTAVYYCVRAGNFGSSYISYFAYWGQGTLVTVSSASTKGPSVFPLAPSSKSTSGGTAALGCLVKDYFPEPVTVSWNSGALTSGVHTFPAVLQSSGLYSLESVVTVPSSSLGTQTYICNVNHKPSNTKVDKKVEPKSCDKTHTCPPCPAPELLGGPSVFLFPPKPKDTLMISRTPEVTCVVVDVSHEDPEVKFNWYVDGVEVHNAKTKPCEEQYGSTYRCVSVLTVLHQDWLNGKEYKCKVSNKALPAPIEKTISKAKGQPREPQVYTLPPSRKEMTKNQVSLTCLVKGFYPSDIAVEWESNGQPENNYKTTPPVLKSDGSFFLYSKLTVDKSRWQQGNVFSCSVMHEALHNHYTQKSLSLSPGKGGGGQGGGGQGGGGQQVQLQESGPGLVKPSETLSLTCTVSGGSISSSSYFWGWIRQPPGKCLEWIGNIYYSGSSNYNPSLKSRVTISVDTSKNQFSLKLSSVTAADTAVYYCARLPRGDRDAFDIWGQGTMVTVSSGGGGQGGGGQGGGGQEIVMTQSPSSLSASVGDRVTITCRASQGISNYLAWYQQKPGKVPKLLIYAASTLQSGVPSRFSGSGSGTDFTLTISSLQPEDFATYYCQQSYSTPFTFGCGTKVEIK chain 3: EIQMTQSPSSLSASVGDRVTITCRASQDISNYLNWYQQKPGKVPKLLIYYTSRLHSGVPSRFSGSGSGTDFTLTISSLQPEDVATYYCVQYAQFPLTFGCGTKVEIKRTVAAPSVFIFPPSDEQLKSGTASVVCLLNNFYPREAKVQWKVDNALQSGNSQESVTEQDSKDSTYSLESTLTLSKADYEKHKVYACEVTHQGLSSPVTKSFNRGEC chain 4: QTVVTQEPSLTVSPGGTVTITCGSSTGAVTSGNYPNWIQKKPGQAPRGLIGGTKFLAPGTPARFSGSLEGGKAALTLSGVQPEDEAEYYCVLYYSNRWVFGSGTKLTVLGQPKAAPSVTLFPPSSEELQANKATLVCLISDFYPGAVTVAWKADSSPVKAGVETTTPSKQSNNKYAAKSYLSLTPEQWKSHRSYSCQVTHEGSTVEKTVAPTECS",1.5 pM,0.04 pM,25.5 pM,0.04 pM,95 pM,0.261 pM,54.6 pM,0.261 pM
